# Data: patent publication US9012420B2, “Aptamer for chymase, and use thereof” (Ribomic Inc., priority 2009, dated 2015)
# Oligonucleotides are written 5' to 3', each unit as a sugar letter and its base; * is a phosphorothioate linkage, no mark a phosphodiester; rarer units and linkages stand in square brackets, end groups in braces. Plain capitals give the bases only. r = 2'-OH (RNA); f = 2'-fluoro
# T1: chymase (recombinant) (UniProt P23946 P23946:22-247)
# T1 sequence: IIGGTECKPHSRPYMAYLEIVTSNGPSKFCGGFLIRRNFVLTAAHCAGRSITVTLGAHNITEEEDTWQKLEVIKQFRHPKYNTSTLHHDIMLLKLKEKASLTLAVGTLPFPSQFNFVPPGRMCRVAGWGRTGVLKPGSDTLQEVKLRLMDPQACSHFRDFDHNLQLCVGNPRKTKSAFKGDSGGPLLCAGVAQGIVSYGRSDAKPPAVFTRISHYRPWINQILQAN
# T2: chymase (recombinant, manufactured by SIGMA) (Homo sapiens, UniProt P23946)
# T2 construct: purchased SIGMA; host or cells: yeast
# T2 sequence (P23946 22-247): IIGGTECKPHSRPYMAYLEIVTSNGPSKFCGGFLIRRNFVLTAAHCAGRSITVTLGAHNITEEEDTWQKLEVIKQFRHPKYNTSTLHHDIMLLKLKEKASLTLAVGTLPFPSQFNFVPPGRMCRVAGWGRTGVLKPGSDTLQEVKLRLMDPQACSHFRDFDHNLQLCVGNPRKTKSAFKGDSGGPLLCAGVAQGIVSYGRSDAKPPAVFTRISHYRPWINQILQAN
# Molecular target: T1, chymase (recombinant)
# Assay: inhibition; SPR ++
# Details: tags: SIGMA, expressed in yeast
# Procedure: (§1) Here, Suc is a protecting succinyl group, and MCA is a 4-methylcoumaryl-7-amide group; upon cleavage of the C-terminal side of phenylalanine, AMC (7-amino-4-methyl-coumarine) is released. By detecting the fluorescence of this AMC, the enzyme activity of chymase can be determined. The assay was performed using a 96-well plate (F16 Black Maxisorp Fluoronunc, manufactured by Nunc), with a reaction mixture volume of 100 μL, in solution C as a buffer solution. First, each nucleic acid was serially diluted to 0.0027-2 μM concentrations in solution C to obtain 50 μL solutions. After 10 μL of the 1 mM substrate prepared in solution C was added thereto, the plate was set to the microplate reader SpectraMax190 (manufactured by Molecular Devices Corporation), and incubated at 37° C. for 5 minutes. Separately, 0.05 μg (or 0.005 μg) of chymase (recombinant, manufactured by SIGMA) was diluted in solution C to obtain a 40 μL chymase solution, and incubated at 37° C. for 5 minutes. The chymase solution was added to the mixture of the nucleic acid and substrate to initiate an enzyme reaction. The final chymase concentration in the reaction mixture was 16.7 nM (or 1.67 nM), the final substrate concentration being 100 μM. The plate containing the reaction mixture was set to the microplate reader SpectraMax190 (manufactured by Molecular Devices Corporation), and examined for time-dependent changes in the fluorescence intensity at 37° C. for 5 minutes (or 30 minutes) (excitation wavelength 380 nm, detection wavelength 460 nm). A linear approximation of the increase in the fluorescence of the AMC released from the substrate by chymase activity was generated, and its slope was taken as the initial velocity […]. For control, samples were treated and analyzed in the same manner in two cases: use of a 30N or 40N (a nucleotide of 30 or 40 consecutive bases represented by N; N is A, G, C or T) nucleic acid pool (negative control), and use of chymostatin, a known chymotrypsin-like serine protease inhibitor (positive control). Taking the initial reaction velocity without the nucleic acid and inhibitor (V_0) as a 100% enzyme activity, the inhibitory rate of each test substance was calculated using the following equation: […]
row,Molecule,IC50 [nM]
1,"SEQ 26 (ssRNA, 2'-F pyrimidines) RNA: GGGACGGUAGGAAUUCGUCGAUUCUACAGAUAGAGAUAAAGUAGAAUUUAACAAAACAUAGAAGAGCGGCCGC",106
2,"SEQ 12 (ssRNA, 2'-F pyrimidines) RNA: GGGACGGUAGGAAUUCGCCGUCAACGUUACAUAAUGUAUAUACCAGGGUAACUAAACAUAGAAGAGCGGCCGC",128
3,"SEQ 24 (ssRNA, 2'-F pyrimidines) RNA: GGGACGGUAGGAAUUCCCUUCAUAGUAGAAUGUUGGUUUCUACAAAAGCGACAAGCAUAGAAGAGCGGCCGC",92
4,"SEQ 19 (ssRNA, 2'-F pyrimidines) RNA: GGGACGGUAGGAAUUCCCACUGCAAUUCAGCAGAAAAAAUUCCGAAAAACACACACCAUAGAAGAGCGGCCGC",163
5,"SEQ 5 (ssRNA, 2'-F pyrimidines) RNA: GGGACGGUAGGAAUUCCCACUUGUCUUUGAGGCAAGAAAUUGUAUUCCGAAGAAGCAUAGAAGAGCGGCCGC",80
6,"SEQ 25 (ssRNA, 2'-F pyrimidines) RNA: GGGACGGUAGGAAUUCAGCUGACUCCAAUGCACACGUAGAUAGAGUUAAAACGUUGCAUAGAAGAGCGGCCGC",79
7,"SEQ 15 (ssRNA, 2'-F pyrimidines) RNA: GGGACGGUAGGAAUUCCCAGAAAAUAAAUUCCGAAGAAAACAACAAUUUUUGCAAACAUAGAAGAGCGGCCGC",285
8,"SEQ 14 (ssRNA, 2'-F pyrimidines) RNA: GGGACGGUAGGAAUUCUCGUUCCUGACAGCAUUUGAGAUAGAUUUAAACAAACGCACAUAGAAGAGCGGCCGC",61
9,"SEQ 17 (ssRNA, 2'-F pyrimidines) RNA: GGGACGGUAGGAAUUCCGUUCGCAGAAACGAACUUUUAAAAAAUGUACGUGGGAGCACAUAGAAGAGCGGCCGC",92
10,"SEQ 18 (ssRNA, 2'-F pyrimidines) RNA: GGGACGGUAGGAAUUCGAACGACAAAUUAUAGAACUUCGUUUGACAUUCCACACCACAUAGAAGAGCGGCCGC",58
11,"SEQ 11 (ssRNA, 2'-F pyrimidines) RNA: GGGACGGUAGGAAUUCCCGACACGAAAUGUGUGAUUAAUUCCGAACAACAAAGUAACAUAGAAGAGCGGCCGC",145
12,"SEQ 23 (ssRNA, 2'-F pyrimidines) RNA: GGGACGGUAGGAAUUCAUAUGUACUCCGUCCUGACAAAAUGUCAAUGACAAACGUUCAUAGAAGAGCGGCCGC",238
13,"SEQ 6 (ssRNA, 2'-F pyrimidines) RNA: GGGACGGUAGGAAUUCUACGGUCUGUGUGAAAUUGAAACACACAAAGAACAAUAGACAUAGAAGAGCGGCCGC",456
14,"SEQ 8 (ssRNA, 2'-F pyrimidines) RNA: GGGACGGUAGGAAUUCUACGGUCUGUGUGAAAUUGAAACACACAAAGAACAAUAAACAUAGAAGAGCGGCCGC",453
15,"SEQ 30 (ssRNA, 2'-F pyrimidines) RNA: GGGACGGUAGGAAUUCGUCCCUCUUGUCUAUUUUGCAGAUAGACUUAAAGCAAACAUAGAAGAGCGGCCGC",147
16,"SEQ 9 (ssRNA, 2'-F pyrimidines) RNA: GGGACGGUAGGAAUUCCCGAAAAGCAACAAGCUUGCUAAAAUGAUUCCGAAAAAACACAUAGAAGAGCGGCCGC",273

# Molecular target: T1, chymase (recombinant)
# Assay: inhibition; SPR ++
# Details: tags: SIGMA, expressed in yeast
# Remark: another data set of the same source
# Procedure: as §1
# The inhibitory activity on chymase was measured in the same manner as in Example 3.
row,Molecule,IC50 [nM]
1,"GGGUUAGAUAGAGUUAAAAACCC (ssRNA, 2'-F pyrimidines; 5' and 3' idT) [56(1)]",26
2,"GGGUUAGAUAGAGUUAAAAACCC (ssRNA, 2'-F pyrimidines; 2'-OMe A8) [56(7)]",38
3,"GGGUUAGAUAGAGUUAAAAACCC (ssRNA, 2'-F pyrimidines; 2'-OMe A16,A17) [56(5)]",29
4,"GGGUUAGAUAGAGUUAAAAACCC (ssRNA, 2'-F pyrimidines; 2'-OMe A10) [56(4)]",27
5,"GGGUUAGAUAGAGUUAAAAACCC (ssRNA, 2'-F pyrimidines; 2'-OMe A18) [56(11)]",28
6,"GGGUUAGAUAGAGUUAAAAACCC (ssRNA, 2'-F pyrimidines; PS between U5 and A6) [56(18)]",12
7,"GGGUUAGAUAGAGUUAAAAACCC (ssRNA, 2'-F pyrimidines; PS between A6 and G7) [56(19)]",8
8,"GGGUUAGAUAGAGUUAAAAACCC (ssRNA, 2'-F pyrimidines; 2'-OMe G1-G3) [56(2)]",24
9,"GGGUUAGAUAGAGUUAAAAACCC (ssRNA, 2'-F pyrimidines; 2'-OMe A12) [56(9)]",111
10,"GGGUUAGAUAGAGUUAAAAACCC (ssRNA, 2'-F pyrimidines; 2'-OMe G13) [56(12)]",35
11,"GGGUUAGAUAGAGUUAAAAACCC (ssRNA, 2'-F pyrimidines; 2'-OMe G7) [56(6)]",31
12,"GGGUUAGAUAGAGUUAAAAACCC (ssRNA, 2'-F pyrimidines; 2'-OMe A19,A20) [56(3)]",25

# Molecular target: T2, chymase (recombinant, manufactured by SIGMA)
# Assay: Chymase inhibitory activity using synthetic substrate Suc-Ala-Ala-Pro-Phe-MCA
# Type: biochemical
# Details: Table 5; same manner as Example 3; mean value of two measurements
# In short: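 Human recombinant chymase (16.7 nM or 1.67 nM final) preincubated 5 min at 37° C., then added to nucleic acid (0.0027–2 μM serial dilutions) and 100 μM substrate in solution C. AMC fluorescence (ex 380/em 460 nm) followed 5 or 30 min at 37° C.; slope gives initial velocity, inhibition versus no-inhibitor control yields IC50.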
row,Molecule,IC50 [nM]
1,63 (rGfCfUrAfCrArGrAfUrArGrArGfUfUrArArArGfUrArGfC) [compound 63],23 ± 3
2,64 (rGfUfCrAfCrArGrAfUrArGrArGfUfUrArArArGfUrGrAfC) [compound 64],20 ± 5
3,"66 (GGGUUAGAUCGAGUUAAAAACCC; listed as RNA, chemistry not fully specified) [compound 66]",> 1000
4,"67 (GGGUUAGAUACAGUUAAAAACCC; listed as RNA, chemistry not fully specified) [compound 67]",> 1000
5,"68 (GGGUUAGAUAGUGUUAAAAACCC; listed as RNA, chemistry not fully specified) [compound 68]",> 1000

# Molecular target: T2, chymase (recombinant, manufactured by SIGMA)
# Assay: Surface plasmon resonance (Biacore T100), chymase immobilized on CM5 chip, nucleic acid injected as analyte
# Type: binding
# Design: key to binding activity using Biacore: ++: significant binding to chymase than SEQ ID NO: 58 which is a negative control; +: similar binding level as SEQ ID NO: 58 which is a negative control
# Details: Table 5; same manner as Example 4; compared with SEQ ID NO: 58
# Procedure: In another method, chymase is first immobilized onto a sensor chip, the amount immobilized being about 4000 RU. 20 μL of an aptamer solution for analyte, prepared at 0.01 μg/μL, is injected, and the binding of the aptamer to chymase is detected. An RNA containing a random nucleotide sequence of 30 or 40 nucleotides is used as a negative control.
# Whether these nucleic acids bind to chymase was determined by the surface plasmon resonance method. Measurements were taken using Biacore T100 (manufactured by GE Healthcare) as described below. About 4000 RU of chymase (recombinant, manufactured by SIGMA) was immobilized on the sensor chip surface of a CM5 chip, using an amine coupling kit. 20 μL of each nucleic acid, prepared at 0.3 μM, as an analyte was injected at a flow rate of 20 μL/min. Solution C was used as a running buffer. The method of evaluation used was the same as Example 1.
# All nucleic acids of SEQ ID NO: 58-68 were prepared by chemical synthesis. Whether these nucleic acids are bound to chymase was assessed by surface plasmon resonance method in the same manner as in Example 4. The inhibitory activity on chymase was measured in the same manner as in Example 3.
# All nucleic acids of SEQ ID NOs: 73-79, 56(8), 80, 56(10), 81, 56(13)-56(14), 83-87 were prepared by chemical synthesis. Whether these nucleic acids are bound to chymase was assessed by surface plasmon resonance method in the same manner as in Example 4.
# All nucleic acids of SEQ ID NO: 88-120, 121, 69, 122, 123, 70-72, 124-131 were prepared by chemical synthesis. Whether these nucleic acids are bound to chymase was assessed by surface plasmon resonance method in the same manner as in Example 4.
row,Molecule,binding activity using Biacore
1,63 (rGfCfUrAfCrArGrAfUrArGrArGfUfUrArArArGfUrArGfC) [compound 63],++
2,64 (rGfUfCrAfCrArGrAfUrArGrArGfUfUrArArArGfUrGrAfC) [compound 64],++
3,"66 (GGGUUAGAUCGAGUUAAAAACCC; listed as RNA, chemistry not fully specified) [compound 66]",+
4,"67 (GGGUUAGAUACAGUUAAAAACCC; listed as RNA, chemistry not fully specified) [compound 67]",+
5,"68 (GGGUUAGAUAGUGUUAAAAACCC; listed as RNA, chemistry not fully specified) [compound 68]",+
